Data from patent US20140221622A1 (AbbVie / Abbott, published 2014).

Key:
[1] = target: T1, c-Met on tumor cell lines (A549, IM-95, SNU-5, SNU-620) (UniProt P08581 25-1390, limits assumed); test: cell-based or functional assay
[2] = target: T2, biotin-labeled cMet (UniProt P08581 25-932, limits assumed, biotin label (site not stated)); test: c-Met binding ELISA by the method of Example 1.3
T2 construct: also called cMet antigen

[3] = target: T1, c-Met on tumor cell lines (A549, IM-95, …); test: cell-based or functional assay; remark: listed apart in the source
[4] = target: T3, Neonatal Fc receptor (FcRn) on CHO-FcRnGPI cells; test: flow cytometry on CHO-FcRnGPI cells, pH 6.4
T3 construct: whole, on cells; nothing more is said; also called FcRn receptors
Procedure: CHO-FcRnGPI cells (Stable FcRn receptor expressor) and CHO-pBudl l cells (non-FcRn expressor) were aliquotted into 96-well plates at 1×10⁵ cells/well. Cells were resuspended in 150 μl FACS buffer. […] 30 μl of diluted antibody or half-Ig binding protein was added to each well and incubated on ice for 1 hour. Following 2 washes with FACS buffer, 50 μl of secondary antibody R-phycoerythrin-conjugated AfiniPure F(ab′)2 Fragment goat anti-human IgG (Jackson ImmunoResearch, West Grove, Pa.) diluted in FACS buffer pH 6.4 or pH7.4 was added. The mixture was incubated for 30 min on ice. The cells were resuspended in 100 μl PBS with 1% FBS (Invitrogen, Carlsbad, Calif.) and 2 μg/ml propidium iodide (Invitrogen, Carlsbad, Calif.) of the corresponding pH. Final FACS data were acquired on a FACScan (Becton Dickinson, Franklin Lakes, N.J.).

[5] = target: T4, CD40 on CD40-overexpressing HEK 293 cells (UniProt P25942 21-277, limits assumed); test: flow cytometry on CD40-overexpressing HEK 293 cells, APC anti-human Fc
T4 construct: whole, on cells
Procedure: First, the CD40-overexpressing HEK 293 cells were stained with hIgG1 or testing material at a range of 0.01 μg/ml to 10 μg/ml. Followed by 30 min incubation on ice with an APC-conjugated anti-human Fc antibody. Cells then are washed twice and resuspended in PBS/FBS. Fluorescence was measured using a Becton Dickinson FACSCalibur (Becton Dickinson, San Jose, Calif.).
The binding of proteins were examined by FACS.

[6] = target: T2, biotin-labeled cMet; test: ELISA: antibody captured on anti-IgG Fc coat, bound biotin-labeled cMet detected with streptavidin-HRP
Procedure: cMet binding ELISA was performed to characterize the antigen binding property of cMet antibodies. 96-well ELISA plates were coated with 100 μl/well 5 μg/ml anti-mouse IgG Fc in PBS at 4° C. overnight. After 3 washes with PBS/0.05% Tween®20, the plates were blocked with 5% milk in PBS for 1 hour at room temperature. After another 3 washes with PBS/0.05% Tween®20, 100 μl cMet antibody was added to each well followed by an incubation of 1 hour at room temperature. Binding biotin-labeled cMet was detected by Streptavidin-horseradish peroxidase (KPL, Gaithersburg, Md.) and tetramethylbenzidine (Thermo Scientific, Rockford, Ill.). Final absorbances were acquired at 450 nm after stopping the reactions with 2 mol/L H₂SO₄. […] The terms EC₅₀ and IC₅₀ may be used interchangeably in this Example to reflect the concentration of the antibody which induces a response halfway between the baseline and the maximum after a specified exposure time.

T4 sequence (P25942 21-277 limits assumed): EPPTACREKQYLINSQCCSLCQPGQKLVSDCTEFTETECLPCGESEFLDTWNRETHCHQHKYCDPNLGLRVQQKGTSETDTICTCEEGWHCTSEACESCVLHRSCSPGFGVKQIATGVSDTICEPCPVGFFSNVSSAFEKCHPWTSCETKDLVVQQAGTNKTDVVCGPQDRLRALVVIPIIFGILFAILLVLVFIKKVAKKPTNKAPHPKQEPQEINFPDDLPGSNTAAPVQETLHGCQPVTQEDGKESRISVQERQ
T2 sequence (P08581 25-932 limits assumed): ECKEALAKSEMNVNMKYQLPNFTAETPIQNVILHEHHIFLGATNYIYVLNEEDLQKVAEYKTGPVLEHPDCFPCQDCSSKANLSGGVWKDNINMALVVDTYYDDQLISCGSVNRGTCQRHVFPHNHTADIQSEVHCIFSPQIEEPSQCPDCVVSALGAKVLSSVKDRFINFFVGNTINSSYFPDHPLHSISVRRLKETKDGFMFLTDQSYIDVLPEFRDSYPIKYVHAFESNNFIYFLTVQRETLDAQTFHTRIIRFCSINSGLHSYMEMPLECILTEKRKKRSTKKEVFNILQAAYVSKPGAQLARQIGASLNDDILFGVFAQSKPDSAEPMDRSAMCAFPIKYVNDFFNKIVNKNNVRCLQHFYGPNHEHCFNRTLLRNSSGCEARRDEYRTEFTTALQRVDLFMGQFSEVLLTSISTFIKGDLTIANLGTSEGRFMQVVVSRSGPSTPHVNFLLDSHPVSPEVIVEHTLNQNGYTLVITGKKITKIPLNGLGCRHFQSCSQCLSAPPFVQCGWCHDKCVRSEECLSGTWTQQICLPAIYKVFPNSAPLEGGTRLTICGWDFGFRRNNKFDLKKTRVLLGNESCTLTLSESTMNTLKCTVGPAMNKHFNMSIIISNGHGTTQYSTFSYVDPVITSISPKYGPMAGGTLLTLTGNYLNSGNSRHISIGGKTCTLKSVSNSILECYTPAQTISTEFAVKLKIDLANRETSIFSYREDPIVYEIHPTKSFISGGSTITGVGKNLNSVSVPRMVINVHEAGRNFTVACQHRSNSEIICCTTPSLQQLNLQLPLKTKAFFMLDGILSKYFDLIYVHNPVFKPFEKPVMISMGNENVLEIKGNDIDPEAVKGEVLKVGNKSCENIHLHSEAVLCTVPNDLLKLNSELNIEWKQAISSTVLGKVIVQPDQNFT
T1 sequence (P08581 25-1390 limits assumed): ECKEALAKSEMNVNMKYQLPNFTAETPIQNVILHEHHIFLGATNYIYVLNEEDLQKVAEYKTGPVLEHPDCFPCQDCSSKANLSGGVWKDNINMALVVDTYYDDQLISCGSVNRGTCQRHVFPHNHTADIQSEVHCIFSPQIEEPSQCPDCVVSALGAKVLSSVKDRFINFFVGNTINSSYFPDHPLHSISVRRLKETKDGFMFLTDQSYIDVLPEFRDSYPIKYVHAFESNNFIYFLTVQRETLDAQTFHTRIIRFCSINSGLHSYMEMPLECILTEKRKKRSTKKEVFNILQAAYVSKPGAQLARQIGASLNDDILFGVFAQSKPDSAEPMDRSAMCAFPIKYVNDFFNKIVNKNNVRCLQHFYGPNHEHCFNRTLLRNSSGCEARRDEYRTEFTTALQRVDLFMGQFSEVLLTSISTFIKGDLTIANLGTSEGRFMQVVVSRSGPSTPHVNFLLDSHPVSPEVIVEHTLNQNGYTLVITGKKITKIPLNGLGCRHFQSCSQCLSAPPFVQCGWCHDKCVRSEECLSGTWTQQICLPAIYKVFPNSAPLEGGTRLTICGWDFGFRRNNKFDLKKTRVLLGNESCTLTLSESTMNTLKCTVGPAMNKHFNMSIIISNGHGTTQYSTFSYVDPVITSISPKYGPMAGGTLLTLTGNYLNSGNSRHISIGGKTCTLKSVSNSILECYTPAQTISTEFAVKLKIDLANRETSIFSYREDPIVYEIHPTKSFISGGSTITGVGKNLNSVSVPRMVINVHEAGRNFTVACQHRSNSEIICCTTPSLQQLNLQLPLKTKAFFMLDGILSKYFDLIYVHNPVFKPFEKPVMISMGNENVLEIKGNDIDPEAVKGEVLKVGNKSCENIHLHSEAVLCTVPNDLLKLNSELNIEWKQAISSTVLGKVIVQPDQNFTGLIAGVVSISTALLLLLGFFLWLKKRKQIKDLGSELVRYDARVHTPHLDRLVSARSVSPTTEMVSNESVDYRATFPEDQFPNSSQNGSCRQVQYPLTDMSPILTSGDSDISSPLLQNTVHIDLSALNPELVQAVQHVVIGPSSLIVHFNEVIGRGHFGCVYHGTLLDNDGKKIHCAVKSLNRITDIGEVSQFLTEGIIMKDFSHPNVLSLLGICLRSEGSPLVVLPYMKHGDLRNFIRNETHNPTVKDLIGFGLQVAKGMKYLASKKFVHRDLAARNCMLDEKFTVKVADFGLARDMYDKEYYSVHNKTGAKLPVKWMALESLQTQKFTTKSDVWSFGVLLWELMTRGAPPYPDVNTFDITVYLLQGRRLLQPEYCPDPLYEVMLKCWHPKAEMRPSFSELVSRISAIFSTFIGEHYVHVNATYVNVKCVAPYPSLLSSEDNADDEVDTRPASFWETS
T3 sequence (P55899 24-297, chain 1 of 2): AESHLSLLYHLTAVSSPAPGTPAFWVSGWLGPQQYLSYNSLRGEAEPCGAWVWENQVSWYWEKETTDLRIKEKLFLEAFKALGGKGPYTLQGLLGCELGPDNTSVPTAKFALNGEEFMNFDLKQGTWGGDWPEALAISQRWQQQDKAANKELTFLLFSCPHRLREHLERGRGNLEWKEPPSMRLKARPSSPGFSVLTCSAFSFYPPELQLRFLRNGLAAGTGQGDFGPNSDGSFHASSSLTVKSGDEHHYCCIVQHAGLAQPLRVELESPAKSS
T3 sequence (P61769 21-119, chain 2 of 2, further chain): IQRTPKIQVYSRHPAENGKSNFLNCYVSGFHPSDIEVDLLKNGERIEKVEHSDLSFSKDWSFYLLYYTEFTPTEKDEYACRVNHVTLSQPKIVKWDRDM

B1: MetMAb1 (antibody, V domains shown)
VH: EVQLVESGGGLVQPGGSLRLSCAASGYTFTSYWLHWVRQAPGKGLEWVGMIDPSNSDTRFNPNFKDRFTISADTSKNTAYLQMNSLRAEDTAVYYCATYRSYVTPLDYWGQGTLVTVSS
VL: DIQMTQSPSSLSASVGDRVTITCKSSQSLLYTSSQKNYLAWYQQKPGKAPKLLIYWASTRESGVPSRFSGSGSGTDFTLTISSLQPEDFATYYCQQYYAYPWTFGQGTKVEIKR
notes: also called monovalent c-Met antibody MetMAb1
[1]
  Inhibition of HGF-induced phospho-c-Met IC50 (A549 cells): 3.8 nM
  Inhibition of IM-95 proliferation (HGF-dependent) IC50: 17.4 nM
  Inhibition of SNU-5 proliferation (constitutively active c-Met) IC50: > 600 nM
  Inhibition/induction of SNU-620 proliferation (constitutively active c-Met but still HGF-inducible) IC50: > 600 nM
[2]
  EC50: 0.27 nM

B2: anti-cMet h5D5 Fab-body (antibody, human IgG1, kappa, V domains shown)
VH: EVQLVESGGGLVQPGGSLRLSCAASGYTFTSYWLHWVRQAPGKGLEWVGMIDPSNSDTRFNPNFKDRFTISADTSKNTAYLQMNSLRAEDTAVYYCATYRSYVTPLDYWGQGTLVTVSS
VL: DIQMTQSPSSLSASVGDRVTITCKSSQSLLYTSSQKNYLAWYQQKPGKAPKLLIYWASTRESGVPSRFSGSGSGTDFTLTISSLQPEDFATYYCQQYYAYPWTFGQGTKVEIKR
notes: Monovalent Fab-Fc heterodimer: LFc chain (VL-CL-linker-Fc knob) and HFc chain (VH-CH1-linker-Fc hole)
[1]
  Inhibition of HGF-induced phospho-c-Met IC50 (A549 cells): 2.6 nM
  Inhibition of IM-95 proliferation (HGF-dependent) IC50: 12.8 nM
  Inhibition of SNU-5 proliferation (constitutively active c-Met) IC50: 4.1 nM
  Inhibition/induction of SNU-620 proliferation (constitutively active c-Met but still HGF-inducible) IC50: > 600 nM
[2]
  EC50: 0.24 nM

B3: cMet AA2 HK MBody (antibody, human IgG1, kappa)
heavy 1: not shown
heavy 2: not shown
light: DFMMSQSPSSLTVSVGEKVTVSCKSSQSLLYTSSQKNYLAWYQQKPGQSPKLLIYWASTRESGVPDRFTGSGSGTDFTLTITSVKADDLAVYYCQQYYAYPWTFGGGTKLELKRTVAAPSVFIFPPSDEQLKSGTASVVCLLNNFYPREAKVQWKVDNALQSGNSQESVTEQDSKDSTYSLSSTLTLSKADYEKHKVYACEVTHQGLSSPVTKSFNRGEC
[3]
  Inhibition of IM95 Proliferation, EC50: 0.23 µg/mL
[4]
  EC50: 31.5 µg/mL

B4: cMet AA3 HK MBody (antibody, human IgG1, kappa)
heavy 1: not shown
heavy 2: not shown
light: DFMMSQSPSSLTVSVGEKVTVSCKSSQSLLYTSSQKNYLAWYQQKPGQSPKLLIYWASTRESGVPDRFTGSGSGTDFTLTITSVKADDLAVYYCQQYYAYPWTFGGGTKLELKRTVAAPSVFIFPPSDEQLKSGTASVVCLLNNFYPREAKVQWKVDNALQSGNSQESVTEQDSKDSTYSLSSTLTLSKADYEKHKVYACEVTHQGLSSPVTKSFNRGEC
[3]
  Inhibition of IM95 Proliferation, EC50: 1.6 µg/mL
[4]
  EC50: 34.8 µg/mL

B5: cMet AA3 KH MBody (antibody, human IgG1, kappa)
heavy 1: not shown
heavy 2: not shown
light: DFMMSQSPSSLTVSVGEKVTVSCKSSQSLLYTSSQKNYLAWYQQKPGQSPKLLIYWASTRESGVPDRFTGSGSGTDFTLTITSVKADDLAVYYCQQYYAYPWTFGGGTKLELKRTVAAPSVFIFPPSDEQLKSGTASVVCLLNNFYPREAKVQWKVDNALQSGNSQESVTEQDSKDSTYSLSSTLTLSKADYEKHKVYACEVTHQGLSSPVTKSFNRGEC
[3]
  Inhibition of IM95 Proliferation, EC50: 2.14 µg/mL
[4]
  EC50: 38 µg/mL

B6: cMet AA6 HK MBody (antibody, human IgG1, kappa)
heavy 1: not shown
heavy 2: not shown
light: DFMMSQSPSSLTVSVGEKVTVSCKSSQSLLYTSSQKNYLAWYQQKPGQSPKLLIYWASTRESGVPDRFTGSGSGTDFTLTITSVKADDLAVYYCQQYYAYPWTFGGGTKLELKRTVAAPSVFIFPPSDEQLKSGTASVVCLLNNFYPREAKVQWKVDNALQSGNSQESVTEQDSKDSTYSLSSTLTLSKADYEKHKVYACEVTHQGLSSPVTKSFNRGEC
[3]
  Inhibition of IM95 Proliferation, EC50: 2.73 µg/mL
[4]
  EC50: 47.1 µg/mL

B7: cMet AA6 KH MBody (antibody, human IgG1, kappa)
heavy 1: not shown
heavy 2: not shown
light: DFMMSQSPSSLTVSVGEKVTVSCKSSQSLLYTSSQKNYLAWYQQKPGQSPKLLIYWASTRESGVPDRFTGSGSGTDFTLTITSVKADDLAVYYCQQYYAYPWTFGGGTKLELKRTVAAPSVFIFPPSDEQLKSGTASVVCLLNNFYPREAKVQWKVDNALQSGNSQESVTEQDSKDSTYSLSSTLTLSKADYEKHKVYACEVTHQGLSSPVTKSFNRGEC
[3]
  Inhibition of IM95 Proliferation, EC50: 1.86 µg/mL
[4]
  EC50: 51.1 µg/mL

B8: Anti-CD40 LA (antibody, human IgG1, kappa, V domains shown)
VH: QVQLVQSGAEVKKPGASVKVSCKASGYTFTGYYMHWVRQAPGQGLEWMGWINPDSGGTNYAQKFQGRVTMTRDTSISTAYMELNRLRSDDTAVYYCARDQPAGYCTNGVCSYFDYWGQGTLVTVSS
VL: DIQMTQSPSSVSASVGDRVTITCRASQGIYSWLAWYQQKPGKAPNLLIYTASTLQSGVPSRFSGSGSGTDFTLTISSLQPEDFATYYCQQANIFPLTFGGGTKVEIKR
[5]
  EC50: 0.189 µg/mL

B9: Anti-CD40 YNV (antibody, human IgG1, kappa, V domains shown)
VH: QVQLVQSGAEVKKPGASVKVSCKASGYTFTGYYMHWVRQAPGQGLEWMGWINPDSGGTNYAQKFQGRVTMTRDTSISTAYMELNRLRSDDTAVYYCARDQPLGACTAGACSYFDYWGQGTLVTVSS
VL: DIQMTQSPSSVSASVGDRVTITCRASQGIYSWLAWYQQKPGKAPNLLIYTASTLQSGVPSRFSGSGSGTDFTLTISSLQPEDFATYYCQQANIFPLTFGGGTKVEIKR
[5]
  binding result: no binding (tested: 0.01 µg/ml to 10 µg/ml)

B10: Anti-CD40 LYNV (antibody, human IgG1, kappa, V domains shown)
VH: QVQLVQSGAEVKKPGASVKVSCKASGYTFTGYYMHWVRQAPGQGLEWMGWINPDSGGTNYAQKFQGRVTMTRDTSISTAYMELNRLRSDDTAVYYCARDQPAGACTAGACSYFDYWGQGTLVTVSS
VL: DIQMTQSPSSVSASVGDRVTITCRASQGIYSWLAWYQQKPGKAPNLLIYTASTLQSGVPSRFSGSGSGTDFTLTISSLQPEDFATYYCQQANIFPLTFGGGTKVEIKR
[5]
  binding result: no binding (tested: 0.01 µg/ml to 10 µg/ml)

B11: Anti-CD40 NA (antibody, human IgG1, kappa, V domains shown)
VH: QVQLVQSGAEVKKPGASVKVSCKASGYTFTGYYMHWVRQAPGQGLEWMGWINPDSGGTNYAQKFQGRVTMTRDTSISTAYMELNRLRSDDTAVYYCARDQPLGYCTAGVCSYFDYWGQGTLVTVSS
VL: DIQMTQSPSSVSASVGDRVTITCRASQGIYSWLAWYQQKPGKAPNLLIYTASTLQSGVPSRFSGSGSGTDFTLTISSLQPEDFATYYCQQANIFPLTFGGGTKVEIKR
[5]
  EC50: 2.12 µg/mL

B12: Anti-CD40 VA (antibody, human IgG1, kappa, V domains shown)
VH: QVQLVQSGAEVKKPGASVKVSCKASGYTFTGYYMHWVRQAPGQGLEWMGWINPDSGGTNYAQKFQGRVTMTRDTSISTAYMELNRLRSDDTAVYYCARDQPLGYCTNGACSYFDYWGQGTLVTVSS
VL: DIQMTQSPSSVSASVGDRVTITCRASQGIYSWLAWYQQKPGKAPNLLIYTASTLQSGVPSRFSGSGSGTDFTLTISSLQPEDFATYYCQQANIFPLTFGGGTKVEIKR
[5]
  EC50: 0.125 µg/mL

B13: Anti-CD40 YA (antibody, human IgG1, kappa, V domains shown)
VH: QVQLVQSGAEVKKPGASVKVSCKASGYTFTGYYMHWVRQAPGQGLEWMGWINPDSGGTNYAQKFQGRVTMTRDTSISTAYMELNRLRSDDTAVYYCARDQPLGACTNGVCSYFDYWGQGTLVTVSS
VL: DIQMTQSPSSVSASVGDRVTITCRASQGIYSWLAWYQQKPGKAPNLLIYTASTLQSGVPSRFSGSGSGTDFTLTISSLQPEDFATYYCQQANIFPLTFGGGTKVEIKR
[5]
  EC50: 0.095 µg/mL

B14: cMet AA1 Ig (antibody, human IgG1, kappa, V domains shown)
VH: QVQLQQSGPELVRPGASVKMSCRASGYTFTSYWLHWVKQRPGQGLEWIGMIDPSNSDTRFNPNFKDKATLNVDRSSNTAYMLLSSLTSADSAVYYCAAYGSYVSPLDYWGQGTSVTVSS
VL: DFMMSQSPSSLTVSVGEKVTVSCKSSQSLLYTSSQKNYLAWYQQKPGQSPKLLIYWASTRESGVPDRFTGSGSGTDFTLTITSVKADDLAVYYCQQYYAYPWTFGGGTKLELKR
notes: HC CDR3 alanine-scanning mutant paired with the common cMet LC; also called Anti-cMet-AA1
[6]
  EC50: 7.25 nM

B15: 5D5 Fab (Fab, V domains shown)
VH: QVQLQQSGPELVRPGASVKMSCRASGYTFTSYWLHWVKQRPGQGLEWIGMIDPSNSDTRFNPNFKDKATLNVDRSSNTAYMLLSSLTSADSAVYYCATYGSYVSPLDYWGQGTSVTVSS
VL: DFMMSQSPSSLTVSVGEKVTVSCKSSQSLLYTSSQKNYLAWYQQKPGQSPKLLIYWASTRESGVPDRFTGSGSGTDFTLTITSVKADDLAVYYCQQYYAYPWTFGGGTKLELKR
[1]
  Inhibition of HGF-induced phospho-c-Met IC50 (A549 cells): 5.9 nM
  Inhibition of IM-95 proliferation (HGF-dependent) IC50: 55.7 nM
  Inhibition of SNU-5 proliferation (constitutively active c-Met) IC50: > 600 nM
  Inhibition/induction of SNU-620 proliferation (constitutively active c-Met but still HGF-inducible) IC50: > 600 nM

B16: cMet AA5 Ig (antibody, human IgG1, kappa, V domains shown)
VH: QVQLQQSGPELVRPGASVKMSCRASGYTFTSYWLHWVKQRPGQGLEWIGMIDPSNSDTRFNPNFKDKATLNVDRSSNTAYMLLSSLTSADSAVYYCATYGSYVSPLDYWGQGTSVTVSS
VL: DFMMSQSPSSLTVSVGEKVTVSCKSSQSLLYTSSQKNYLAWYQQKPGQSPKLLIYWASTRESGVPDRFTGSGSGTDFTLTITSVKADDLAVYYCQQYYAYPWTFGGGTKLELKR
notes: the intended AA5 mutation is not visible; also called Anti-cMet-AA5
[6]
  EC50: 1.81 nM

B17: Anti-human c-Met antibody 5D5 (antibody, V domains shown)
VH: QVQLQQSGPELVRPGASVKMSCRASGYTFTSYWLHWVKQRPGQGLEWIGMIDPSNSDTRFNPNFKDKATLNVDRSSNTAYMLLSSLTSADSAVYYCATYGSYVSPLDYWGQGTSVTVSS
VL: DFMMSQSPSSLTVSVGEKVTVSCKSSQSLLYTSSQKNYLAWYQQKPGQSPKLLIYWASTRESGVPDRFTGSGSGTDFTLTITSVKADDLAVYYCQQYYAYPWTFGGGTKLELKR
notes: VH and VL are those cloned from hybridoma HB-11895 (5D5.11.6); also called bivalent antibody 5D5
[1]
  Inhibition of HGF-induced phospho-c-Met IC50 (A549 cells): 1.4 nM
  Inhibition of IM-95 proliferation (HGF-dependent) IC50: 5.8 nM
  Inhibition of SNU-5 proliferation (constitutively active c-Met) IC50: > 600 nM
[2]
  EC50: 0.08 nM

B18: cMet AA4 Ig (antibody, human IgG1, kappa, V domains shown)
VH: QVQLQQSGPELVRPGASVKMSCRASGYTFTSYWLHWVKQRPGQGLEWIGMIDPSNSDTRFNPNFKDKATLNVDRSSNTAYMLLSSLTSADSAVYYCATYGSYAAPLDYWGQGTSVTVSS
VL: DFMMSQSPSSLTVSVGEKVTVSCKSSQSLLYTSSQKNYLAWYQQKPGQSPKLLIYWASTRESGVPDRFTGSGSGTDFTLTITSVKADDLAVYYCQQYYAYPWTFGGGTKLELKR
notes: HC CDR3 alanine-scanning mutant paired with the common cMet LC; also called Anti-cMet-AA4
[6]
  EC50: 1.24 nM
